Data as given in the nanobody polyreactivity screen of Harvey et al. (2022).

test: yeast display, Sf9 membrane polyspecificity reagent, FACS + sequencing; frameworks hold sequencing errors
How it was run: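 A nanobody's polyreactivity label depends on the gate it was sorted from. Yeast display cells were stained with 10% biotinylated, detergent-solubilized Sf9 membrane reagent for 1 hour at 4 °C, enriched on streptavidin microbeads and sorted by FACS. The low and high (top ~1%) gates were set on anti-HA fluorescence for expression and streptavidin fluorescence for reagent binding.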

Sequence | polyreactivity (PSR sort gate)
QVQLVESGGGLVQAGGSLRLSCAASGSTFARNAMGWYRQAPGKERDLVAAITWSGGNTYYADSVKGRFTISRDNAKNTVYLQMNSLKPEDSAVYYCNKATRHHFYYWGQGTQVTVSS | high polyreactivity
QVQLVESGGGLVQAGGSLRLSCAASGSTFARNAMGWYRQAPGKERELVAAITYSGGRTYYADSVKGRFTISRDNAKNTVYLQMNSLKPEDTAVYYCAADIVSSTDYPFDYWGQGTQVTVSS | low polyreactivity
QVQLVESGGGLVQAGGSLRLSCAASGSTFARNVMGWYRHAPGKERELVAAITRSGGSTYYADSVKGRFTISRDNAKNTVYFQMNSLKPEDTAVYYCNRDFRGLAYSDRYDYWGQGTQVTVSS | low polyreactivity
QVQLVESGGGLVQAGGSLRLSCAASGSTFARYAMGWYRQAPGKEREFVAAISASGGRTYYADSVKGRFTISRDNAKNTVYLQMNSLKPEDTAVYYCAVRVYAKYFAKYDYWGQGTQVTVSS | high polyreactivity
QVQLVESGGGLVQAGGSLRLSCAASGSTFARYAMGWYRQAPGKERELVAGISTSGGRTYYADSVKGRFTISRDNAKNTVYLQMNSLKPEDTAVYYCAKALSQTWYDGQYGYWGQGTQVTVSS | low polyreactivity
QVQLVESGGGLVQAGGSLRLSCAASGSTFARYVMGWYRQAPGKERELVAAIRSTGGRTYYADSVKGRFTISRDNAKNNVYVQMNSLKPEDTAVYYCAAAFGQYSRKRFDYWGQGTQVTVSS | high polyreactivity
QVQLVESGGGLVQAGGSLRLSCAASGSTFASNAMGWYRQAPGKDRELVADLSSGGSTYADSVKGRFTISRDNAKNTVYLQMNSLKPVDTAVYYCNNRSYGFLRGPRKTIKYYRYGYWGQGTQVTVSS | high polyreactivity
QVQLVESGGGLVQAGGSLRLSCAASGSTFASNAMGWYRQAPGKERELVAAITSRDASTYYADSVKGRFTISRDKEKNTVYLQMNSLKPEDTAVYYCAPVGYSPAAFDYWGQGTQVTVSS | low polyreactivity
QVQLVESGGGLVQAGGSLRLSCAASGSTFASNPMGGYRQAPGKERELVAAISGSGGSTYYADSVKGRFTISRDNAKNTVYLQMNSMTPEDTAVYYCNAAVAYYSYSYYTKVGVDYWGQGSQVTVSS | high polyreactivity
QVQLVESGGGLVQAGGSLRLSCAASGSTFASYAMGSYRQATGKETELVASITRRGGSTDYADSVKGRFTISRDNAKTTVYLQMNSLKPEDTSVYYAVETAWSYNSNYWFDYWGQGTQVTVSS | high polyreactivity
QVQLVESGGGLVQAGGSLRLSCAASGSTFASYAMGWDRQAPGKERELVAAITDSGGSTYYADSVKGRFTISRDNAKNTVYLQMNSLKPEDTAVYYCAAYGPYFSYHDYDYWGQGTQVTVSS | low polyreactivity
QVQLVESGGGLVQAGGSLRLSCAASGSTFASYAMGWNRQAPGKEREFVAAISRSGGSTYYADSVKWRFTISRDNAKNTVYLQMNSLKPEDTAVYYCAARSPSADEYYFWGQGTQVTVSS | low polyreactivity
QVQLVESGGGLVQAGGSLRLSCAASGSTFASYAMGWYRQAPGKERELVAAIRWRGGTTYYADSVKGRFTISRDNAKNTVYLQMNSLKPEDTAVYYCNADRYYLYYYWGQGTQVTVSS | low polyreactivity
QVQLVESGGGLVQAGGSLRLSCAASGSTFASYAMGWYRQAPGKERELVAAITNGGSTNYADSVKGRFTISRDNAKNTVYLQMNSLKPEDTAVYYCAAYDGFPRRYDYWGQGTQVTVSS | low polyreactivity
QVQLVESGGGLVQAGGSLRLSCAASGSTFAVNVMGWYRQAPGKERELVATITYRDGRTYYADSVKGRFTISRDNAKNTVYLQMNSLNPEDTAVYYCAADDEYKQEAEMDSWGQGTQVTVSS | low polyreactivity
QVQLVESGGGLVQAGGSLRLSCAASGSTFAVYAMGWYRQAPGKERELVAVISRGANTNYADSVKGRFTISRDNAKNTVYLQMNSLKPEDTAVYYCAAPSYFTHRGRFDYWGQGTQVTVSS | low polyreactivity
QVQLVESGGGLVQAGGSLRLSCAASGSTFAVYAMGWYRQEPGKERELVAVISRGANTNYADSVKGRFTISRDNAKNTVYLQMNSLIPEDTAVYYCAAPSFFTHRGRFDYWGQGTQVTVSS | low polyreactivity
QVQLVESGGGLVQAGGSLRLSCAASGSTFAWNAMGWYRQAPGKERELVAAISWSGVRTYYADSVKGRFTISRDNAKNTVYLQMNSLKPEDTAVYYCAAPVYWAYTRSMDYWGQGTQVTVSS | high polyreactivity
QVQLVESGGGLVQAGGSLRLSCAASGSTFAWYAMGWYRQAPGKERELVASIRWGGGSTYYADSVKGRFTISRDNAKNTVFLQMHSLKPEDTAVYYCAAYFGYTVGRYNYWGQGTQVTVSS | high polyreactivity
QVQLVESGGGLVQAGGSLRLSCAASGSTFAWYAMGWYRQAPGKERELVAVITSTGRTYYADSVKGRFTISRDNAKNTVYLQMNSLKPEDSAVYYCAAQYGGGYLKPYRREYWGQGTQVTVSS | high polyreactivity
QVQLVESGGGLVQAGGSLRLSCAASGSTFAWYAMGWYRQATGKETELVAVITRRGGSTYYADSVKGRFTISRDNAKNTVYLQMNSLKPEDTAVYYCAAEYQVSHWYRTASVYDYDSWGQGTQVTVSS | high polyreactivity

Sequence | polyreactivity (PSR sort gate)
QVQLVESGGGLVQAGGSLRLSCAASGSTFAWYTMGWYRQAPGKERELVARISGSVGSTYYADSVKGRFTISRDNAKNTVYLQMNSLKPEDTAVYYCAAVYDEDQYDYWGQGTQVTVSS | low polyreactivity
QVQLVESGGGLVQAGGSLRLSCAASGSTFAYNAMGGYRKAPGKERELVATISTDGSTYADSVKGRFTISRDNAKNTVYLQMNSLKPEDTAVYYCNADGHPSDPGYDYWGQGTHVTVSS | low polyreactivity
QVQLVESGGGLVQAGGSLRLSCAASGSTFAYNAMGWYRQAPGKERELVAAISGSTTRTYYADSVKGRFTISRDNAKNTVYLQMNSLKPEDTAVYYCAAGIPFRQRLRRYYYWGQGTQVTVSS | high polyreactivity
QVQLVESGGGLVQAGGSLRLSCAASGSTFAYNAMGWYRQAPGKERELVASISQSGVSTYYADSVKGRFTISRDNAKNTVYLQMNSLKPEDTAVYYCNTEIYYRSYEDDYWGQGSQVTVSS | low polyreactivity
QVQLVESGGGLVQAGGSLRLSCAASGSTFAYNAMGWYRQAPGKERELVATITSGGSTSYADSVKGRFTISRDNAKNTVYLQMNSLKPEDTAVYYCAARKVTKSTYNYWGQGTQVTVSS | low polyreactivity
QVQLVESGGGLVQAGGSLRLSCAASGSTFAYNDMGWYRQAPGKERELVADIRSGGNTNYADSVKGRFTISRDNAKNTVYLHMNSLKPEATAVYYCATDGYRIDVYHPDYRYDYWGQGTQVTVSS | low polyreactivity
QVQLVESGGGLVQAGGSLRLSCAASGSTFAYNDMGWYRQAPGKERELVADIRSGGNTNYADSVKGRFTISRDNAKNTVYLQMNSLKPEDTAVYYCASDGYRIDVYHPDYRYDYWGQGTQVTVSS | low polyreactivity
QVQLVESGGGLVQAGGSLRLSCAASGSTFAYNTMGWYRKAPGKERELVAAITQLGGSTYADSVKGRFTISRDNAKNTVYLQINSLKPEENAVYYCAADGYTYKFDYWGQGTQVTVSS | low polyreactivity
QVQLVESGGGLVQAGGSLRLSCAASGSTFAYYAMGWYRQAPGKERELVARIRSSGVSTYYADSVKGRFTISRDNAKNTVYLQMNSLKPEDTAVYYCNKAYSGVRYDSWGQGTQVTVSS | low polyreactivity
QVQLVESGGGLVQAGGSLRLSCAASGSTFAYYTMGWYRQAPGKERELVAAISAGGGSTYYADSVKGRFTISRDNAKNTVYLQMNSLKPEDTAVYYCAVRVLIHTNTRRLDYWGQGTQVTVSS | high polyreactivity
QVQLVESGGGLVQAGGSLRLSCAASGSTFCYYGMGWYRQAPGTERELVAAISWSGGTFYADSVKGRFTISRDNAKNTVYLQMNSLKPEDTAVYYCATDYGGPITGYEYWGQGTQVTVSS | low polyreactivity
QVQLVESGGGLVQAGGSLRLSCAASGSTFDAYAMGWYRPAPGTERELVAGISTSGGSTYYADSVKGRFTISRDNAKYTVVLQMNSMIPEVYAVYYCGAGVFRYVDRYGDMEYWGQGTQVTVSS | low polyreactivity
QVQLVESGGGLVQAGGSLRLSCAASGSTFDAYAMGWYRQAPGKERELVAAITWSGGSTYYADSVKGRFTISRDNAKNTVYLQMNSLKPEDTAVYYCAAYYLIFYFEFDYWGQGTQVTVSS | low polyreactivity
QVQLVESGGGLVQAGGSLRLSCAASGSTFDAYAMGWYRQAPGKERQLVAAITHGGSTNYADSVKGRFTISRDNAKNTVYLQMNSLKPEDTAVYYCNAQHRTVWGIFGRFNYWGQATQVTVSS | low polyreactivity
QVQLVESGGGLVQAGGSLRLSCAASGSTFDDNAMGWYRQAPGKERELVAAINGDGITTYADSVKGRFTISRDNAKNTVYLQMNSMKPEDTAVYYCNTVGIGAWGYSYPDEDNYWGQGTQVTVSS | low polyreactivity
QVQLVESGGGLVQAGGSLRLSCAASGSTFDDNGMGWYRKAPGKERELVAGINSAGSTYYADSVKGRFTISRDNAKNTVYLQMNSLKPEDTAVYYCARRFLLKDRTKRAYGSWGQGTQVTVSS | low polyreactivity
QVQLVESGGGLVQAGGSLRLSCAASGSTFDDYAMGWYRQAPGKERELVAAINSDCGGTYYADSVKGRFTISRDNAKNTVYLQMNSLKPEDTAVYYCNVEYEDYYAQRYGYDYWGQGTQVTVSS | low polyreactivity
QVQLVESGGGLVQAGGSLRLSCAASGSTFDDYVMGWYRQAPGKERELVAGINSRGTSTDYADSVKGRFTISRDNAKNTVYLQLNSLKPEDTAVYYCAADDSHGYDYWGQGTQVTVSS | low polyreactivity
QVQLVESGGGLVQAGGSLRLSCAASGSTFDDYVMGWYRQAPGKERELVAGINSRGTSTDYAGSVKGRFTISRDNAKNTVYLQMNSLKPEDTAVYYCAADDSHGYDYWGQGTQVTVSS | low polyreactivity
QVQLVESGGGLVQAGGSLRLSCAASGSTFDENAMAWYRQAPGKEWELVAVISDSGGSTYYADSVKGRFTISRDNAKNTVYLQMNSLKPEDTAVYYCAADQSSLDYGNDYWGQGTQVTVSS | low polyreactivity
